In publication PMC6692024:

Legend:
[1] = test system: GST-DEK WT (Homo sapiens); assay: EMSA (agarose); conditions: 20 mM Hepes-KOH pH 7.6, 100 mM NaCl, 10 mM NaHSO3, 1 mM EDTA, 1 ug/ml BSA; 30 ul, 1 h at 37 C; 0.6% agarose gel in TBE. PAR overlay assays (poly(ADP-ribose) …); scale: DEK:DNA molar ratio at first detectable shift
[2] = test system: GST-DEK PBD2-Mut2 (Homo sapiens); assay: EMSA (agarose); conditions: only slightly reduced; indistinguishable from WT at higher molar ratios; 20 mM Hepes-KOH pH 7.6, 100 mM NaCl, 10 mM NaHSO3, 1 mM EDTA, 1 ug/ml BSA; 30 ul, 1 h at 37 C; 0.6% agarose gel in TBE. PAR overlay assays (poly(ADP-ribose) …); scale: DEK:DNA molar ratio at first detectable shift

plasmid DNA (unnamed) was tested, and the binding signal [1] was 84 and the binding signal [2] was 112.
